Experimental data published in patent US20160017341A1.

Target: B-lymphocyte antigen CD20 (UniProt P11836)
Test: direct binding of I-125 labeled antibody

Sequence of UniProt P11836 (P11836 whole entry): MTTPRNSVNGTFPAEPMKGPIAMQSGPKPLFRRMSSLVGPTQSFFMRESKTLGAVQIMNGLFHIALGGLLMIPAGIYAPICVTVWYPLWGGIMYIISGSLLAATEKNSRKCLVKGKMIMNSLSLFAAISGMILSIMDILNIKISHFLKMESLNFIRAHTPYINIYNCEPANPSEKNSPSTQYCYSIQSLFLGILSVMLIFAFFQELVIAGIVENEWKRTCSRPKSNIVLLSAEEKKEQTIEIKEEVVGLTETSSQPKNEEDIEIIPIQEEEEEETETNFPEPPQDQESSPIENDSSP

Substance: anti-CD20 monoclonal antibody 2B8
- apparent affinity constant (Kap): 3.5 nM
